Numbering of substitutions follows the chain as printed.
Assays:
ITK R29C = target: T1, ITK R29C (Homo sapiens, UniProt Q08881, R29C); assay: ITK in vitro translation assay with streptavidin pull-down, R29C; details: 10 μM biotinylated pept-in, fraction binding normalized over vehicle
T1 construct: made in house; host or cells: cell-free: PURExpress In Vitro Protein Synthesis Kit (New England Biolabs)
T1 sequence (Q08881 1-620 R29C): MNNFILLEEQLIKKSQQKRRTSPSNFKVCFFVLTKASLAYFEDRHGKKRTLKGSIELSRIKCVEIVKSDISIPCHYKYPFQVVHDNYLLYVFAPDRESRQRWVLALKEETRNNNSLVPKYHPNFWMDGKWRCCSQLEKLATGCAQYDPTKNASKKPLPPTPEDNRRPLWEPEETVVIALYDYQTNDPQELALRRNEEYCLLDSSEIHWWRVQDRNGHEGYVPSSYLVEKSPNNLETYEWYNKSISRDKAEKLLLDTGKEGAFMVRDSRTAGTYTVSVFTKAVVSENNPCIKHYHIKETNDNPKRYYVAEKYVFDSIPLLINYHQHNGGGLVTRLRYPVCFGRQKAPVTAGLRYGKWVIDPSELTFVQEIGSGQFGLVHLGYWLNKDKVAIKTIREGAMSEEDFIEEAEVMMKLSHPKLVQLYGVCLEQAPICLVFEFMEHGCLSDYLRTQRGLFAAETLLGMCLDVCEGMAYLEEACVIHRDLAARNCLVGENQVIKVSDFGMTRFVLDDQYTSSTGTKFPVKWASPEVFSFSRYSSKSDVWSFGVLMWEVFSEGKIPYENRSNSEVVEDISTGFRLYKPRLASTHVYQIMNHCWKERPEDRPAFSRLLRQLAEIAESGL
Procedure: (§1) An in vitro translation approach was used to assess ITK mutant selective binding over wild-type for the 22-006-N001 and 22-018-N001 pept-ins. In particular, in vitro translation assays were performed using the PURExpress® In Vitro Protein Synthesis Kit (New England Biolabs) according to the manufacturer's instructions. Briefly, linear DNA fragments containing T7 promotor and terminator sequences flanking the […] (SEQ ID NO: 68)-tagged ITK coding sequence were generated using PCR and purified using the MinElute PCR Purification Kit (Qiagen). 250 ng of linear DNA was subsequently used for the in vitro translation reaction, which was performed for 2 hrs at 37° C. with shaking (1000 rpm). Indicated biotinylated pept-ins were mixed in the translation reactions from a 5 mM stock solution in 6M Urea to a final concentration of 10 μM. Upon completion of the translation reaction, biotinylated pept-ins were captured from the reaction mix using Streptavidin coated beads (Pierce) during 90 min at room temperature. Beads were next washed with TBS containing 0.1% Tween 20 and bound proteins were finally boiled off in 1×SDS loading dye (Bio-Rad) in TBS buffer. Proteins were resolved using Any kD 15-well Mini-PROTEAN gels (Bio-Rad) during SDS-PAGE and probed for ITK using a rabbit anti-[…] (SEQ ID NO: 68) tag antibody (Cell Signaling 14793) after Western blotting.

ITK R29L = target: T2, ITK R29L (Homo sapiens, UniProt Q08881, R29L); assay: ITK in vitro translation assay with streptavidin pull-down, R29L; details: 10 μM biotinylated pept-in, fraction binding normalized over vehicle
T2 construct: made in house; host or cells: cell-free: PURExpress In Vitro Protein Synthesis Kit (New England Biolabs)
T2 sequence (Q08881 1-620 R29L): T1 sequence (Q08881 1-620 R29C) with C29L
Procedure: as §1

Sequence	binding to ITK R29C over wild-type (ITK R29C)	binding to ITK R29L over wild-type (ITK R29L)
AKVCFFVKGSKVCFFVK (ITK pept-in) [22-006-N001]	Selective binding to the mutant over wild-type	
AKVLFFVKGSKVLFFVK (ITK pept-in) [22-018-N001]		Selective binding to the mutant over wild-type
